From patent publication US20140051633A1 come the findings set out here.

The target in assay [1] is human Hepatocyte Growth Factor (HGF) (human) (UniProt P14210). Kind of assay: competition with ^3H-Hinge for soluble HGF.
Assay [2] has the same target. Kind of assay: competition with ^3H-Hinge for soluble HGF (1.25 ng), Bio-Gel P6 spin columns, scintillation counting.
The target of assay [3] is Hepatocyte Growth Factor (HGF), species not stated (Homo sapiens (Human)) (UniProt P14210). Kind of assay: ^3H Dihexa binding to HGF (FIG. 43), repeated in the text.
For assay [4] the target is unchanged. Kind of assay: ^3H Dihexa incubated with different concentrations of HGF, Biogel P6 columns, scintillation counting.

human Hepatocyte Growth Factor (HGF) (human), sequence (P14210 32-728 limits assumed): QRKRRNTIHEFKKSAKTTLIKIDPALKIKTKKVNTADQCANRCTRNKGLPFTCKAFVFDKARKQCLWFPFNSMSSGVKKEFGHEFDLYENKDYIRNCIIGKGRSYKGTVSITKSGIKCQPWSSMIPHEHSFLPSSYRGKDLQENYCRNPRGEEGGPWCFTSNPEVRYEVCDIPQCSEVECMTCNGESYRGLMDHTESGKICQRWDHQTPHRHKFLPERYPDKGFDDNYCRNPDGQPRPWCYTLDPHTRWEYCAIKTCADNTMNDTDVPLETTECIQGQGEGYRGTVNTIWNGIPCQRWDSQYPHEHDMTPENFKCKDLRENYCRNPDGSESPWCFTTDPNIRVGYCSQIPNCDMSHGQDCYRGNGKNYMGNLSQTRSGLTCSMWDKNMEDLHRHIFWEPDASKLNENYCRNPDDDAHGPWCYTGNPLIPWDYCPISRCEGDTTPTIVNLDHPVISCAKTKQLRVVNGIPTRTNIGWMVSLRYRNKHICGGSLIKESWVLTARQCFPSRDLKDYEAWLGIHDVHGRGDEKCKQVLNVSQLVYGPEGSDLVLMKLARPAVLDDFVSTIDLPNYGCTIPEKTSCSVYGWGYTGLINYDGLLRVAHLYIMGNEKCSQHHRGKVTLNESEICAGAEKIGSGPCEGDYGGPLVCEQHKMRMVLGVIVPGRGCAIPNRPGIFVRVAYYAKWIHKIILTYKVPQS
Hepatocyte Growth Factor (HGF), species not stated (Homo sapiens (Human)), sequence (P14210 32-494 limits assumed, form in doubt, chain 1 of 2): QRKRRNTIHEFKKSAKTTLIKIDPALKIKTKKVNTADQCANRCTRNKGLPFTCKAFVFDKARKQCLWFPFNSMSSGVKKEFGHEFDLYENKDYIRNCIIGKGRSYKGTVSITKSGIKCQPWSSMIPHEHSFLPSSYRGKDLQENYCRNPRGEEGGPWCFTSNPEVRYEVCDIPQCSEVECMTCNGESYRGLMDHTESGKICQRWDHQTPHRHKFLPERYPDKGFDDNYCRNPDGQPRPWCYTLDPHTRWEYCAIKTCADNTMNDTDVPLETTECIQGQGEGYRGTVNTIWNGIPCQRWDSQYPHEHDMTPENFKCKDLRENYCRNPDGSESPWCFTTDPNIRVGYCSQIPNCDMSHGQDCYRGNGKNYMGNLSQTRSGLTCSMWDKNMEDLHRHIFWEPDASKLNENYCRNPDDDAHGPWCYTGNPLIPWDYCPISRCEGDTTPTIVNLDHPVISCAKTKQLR
Hepatocyte Growth Factor (HGF), species not stated (Homo sapiens (Human)), sequence (P14210 495-728 limits assumed, form in doubt, chain 2 of 2): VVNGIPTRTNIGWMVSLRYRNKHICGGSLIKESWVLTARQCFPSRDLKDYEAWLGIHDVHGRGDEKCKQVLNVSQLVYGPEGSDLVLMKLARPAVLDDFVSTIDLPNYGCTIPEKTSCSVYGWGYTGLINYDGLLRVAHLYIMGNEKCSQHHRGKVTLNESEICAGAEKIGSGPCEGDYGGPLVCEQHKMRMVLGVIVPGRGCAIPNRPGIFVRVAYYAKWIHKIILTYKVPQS

Regarding D-Nle-Cys-Ile-NH-(CH2)5-CONH2 (peptide), the Ki in assay [1] and in assay [2] was 0.133 nM in each case.
Consider D-Nle-Trp-Ile-NH-(CH2)5-CONH2 (peptide), for which the Ki – broadly, the equilibrium dissociation constant of an inhibitor or competing ligand from its target – in assay [2] amounted to 3.37 nM.
D-Nle-Met-Ile-NH-(CH2)5-CONH2 (peptide): the Ki in assay [1] was 137 nM; in assay [2] it was 138 nM.
Regarding “Dihexa (N-hexanoic-Tyr-Ile-(6)-aminohexanoic amide) (peptide)”, the Kd (commonly a measure of binding affinity in units of concentration) in assay [3] stood at 0.00022 nM; in assay [4], 0.000221 nM.
